Results as given in the nanobody polyreactivity screen of Harvey et al. (2022).

Assay: yeast display, Sf9 membrane polyspecificity reagent, FACS + sequencing; frameworks hold sequencing errors
In short: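 Galactose-induced (36–48 hours) yeast carrying a synthetic nanobody display library were exposed to 10% biotinylated, detergent-solubilized Sf9 membrane reagent at 4 °C for 1 hour. FACS followed streptavidin microbead enrichment, using low and high (top ~1%) gates for expression (anti-HA) and reagent binding (streptavidin). Colony PCR, MiSeq 2 × 250 sequencing and CDR-length filtering followed. Labels for polyreactivity reflect the gate of origin.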

Sequence | polyreactivity (PSR sort gate)
QVQLVESAGGLVQAGGSLRLSCAASGYIFYFYAMGWYRQAPGKERELVAAITSVGSTKYADSVKGRFTISRDNAKNTVYLQMNSLKPEDTAVYYCAARSWSGYGLYNYWGHGTQVTVSS | high polyreactivity
QVQLVESGGGLVQAGGSLRLSCGASGRIFNSNAMGWYRQAPGKERELVAASSWSGGTSYYADSVKGRFTISRDNAKNTVYLQLNSLKPEDTAVYYCNAVGLHWWPGDYWGQGTQVTVSS | low polyreactivity
QVQLVESVGGLDQAGGSLRLSCAASGRIFRYYAMGWDRQAPGKERELVAAITSDGRTYYADSVKGRFTISRDNAKNTVYLQMNSLKPEDTAVYYCAADHHSYRYGGYYYWGQGTQVTVSS | low polyreactivity
QVQLEESGGGLVQAGGSLRLSCAASGIIFWYNAMGGSRQAPGKETELVAAISRGGGNTYADSVKGRFTISRDNAKNTVYLQMKSLKEVDTAVYYCAAKRSGYRFNTRWFRLPKYDYWGQGNQVTVSS | low polyreactivity
QVQLVESGGGLVQAGGSLRLSCAASGGTFDVNAMGWYRQAPGKERELVAAITWSGGNTYYADSVKGRFTISRDNAKNTVYLQMTSLKPEDTAVYYCATDFSPVYYTRYDYWGQGTQVTVSS | low polyreactivity
QVQLVESGGGLVQAGGSLRLSCAASGRTFQGYAMGWYRQAPGKERELVAAISRSGGRTYYADSVKGRFTISRDNAKNTVYLQMNSLKPEDTAVYYCAARRRWSQTPFDYWGQGTQVTVSS | high polyreactivity
QVQLVESGGGLVQAGGSLRLSCAASGSVFGKYAMGWYRQAPGKERELVAAISRSGGSTYYADSVKGRFTISRDNAKNTVYLQMNSLKPEDTAVYYCAADSPGPWRYDYWGQGTQVTVSS | high polyreactivity
QVQLVESGGGLVQAGGSLRLSCAASGSTFGVNVMGWYRQAPGKERELVDAISRSGGRTYYADSVKGRFTISRDNAKNTVYLQMNSLKPEDTAVYYCNTRGYDYWGQGTQVTVSS | high polyreactivity
QVQLVESGGGLVQAGGSLRLSCAASGRIFERNAKGWYRQAPGKERELVAALTYNGGRTYYADSVKGRFTITRDNAKNTVYLQLNSLKPEDTAVYNCNAQSRVTRSSYRGSPRYDYWGQGTQVTVSS | high polyreactivity
QVQLVESGGGLVQAGGSLRLSCAASGSIFDTNAMGWYRQAPGKERELVAAISFSGVRTYYADSVKGRFTISRDNAKNTVYLLMNSLKPEDTAVYYCNRLRISPGWRYNYWGQGTQVTVSS | high polyreactivity
QVQLVESGGGLVQAGGSLRLSCAASGSLFERYAMGWNRQAPGKEREFVATITSGGGRTYYADSVKGRFTISRDNAKNTVYLQMNSLKPEDTAVYYCNAVYRARSYDYWGQGTQVTVSS | high polyreactivity
QVQLVESGGGLVQAGGSLRLSCAGSGSTFDGNAMGWYRQAPGKDRELVAAITSGGSTNYADSVKGRFTISRDNAKNTVYLQMNSLKPEDTAVYYCAADTVSFSILYDYWGQGTQVTVSS | low polyreactivity
QVQLVESGGGLVQAGCSLRLRCAASGFTFQYNGMGWYRQAPGKERELVAAINWSGGTTYYADSVKGRFTISRDNAKNTVYLLMNCLKPEDTAVYYCAKGYWRRYSPVGGLGYDYWGQGTQVSVSS | high polyreactivity
QVQLVESGGGLVQAGGSLRLSCAASGSTFTINVMGWYRQAPGKERELVAAINGGGRTNYADSVKGRFTSSRDNAKNTVYLQMNSLKPEDTAVYYCAADGLSNVRQMDYWGQGTQVTVSS | low polyreactivity
QVQLVESGGGLVQAGGSLRLSCAASGSTFTIYAMGWYRPAPGKERELVAAIDWSGGGTDYADSVKGRFTISRDNAKNTVYLQMNSLKPEDTAVYYCAAETFYDYGGYDYWGQGTQVTVSS | low polyreactivity
QVQLVESGGGLVQAGGSLRLSCAASGRTFGLYAMGWYRQAPGKERELVATISVSSGSTYYADSVKGRFTISRDNAKYTVYLQMNSLKPEDTAVYYCNVRYKRNRWQYDYWGQGTQVTVSS | high polyreactivity

Sequence | polyreactivity (PSR sort gate)
QVQLVESGGGLVQAGGSLRLSCAASGSIFVPNTMGWYRQAPGKERELVAVISRSGGSTNYADSVKGRFTISRDNAKNTVYLQMNSLKPEDTAVYYCNADDGYSVWGYDYWGQGTQVTVSS | low polyreactivity
QVQLVESGAGLVQAGGSLRLSCAASGGTLRYYAMGWYRPAPGKEREFVASISRSGGSTYYADSVKGRFTISRYNAKNTVYLQMNSLKPEDTAVYYCAAYWSPGYTTGRGYWGQGTQVTVSS | high polyreactivity
QVQLVESGGGLVQAGGSLRLSCAASGIIFDYYDMGWYRQAPGKERELVAAISDDGGSTYYADSVKGRFTISRDNAKNTVYLQMNSLKPEDTAVYYCAADSYYAYPYGYGYWGQGTQVTVSS | high polyreactivity
QVQLVESGGGLVQAGGSLRLSCAASGRISWGYAMGWYRQAPGKERELVAVINFNGGRTYYADSVKGRFTISRDNAKNTVYLQMNSLKPEDTAVYYCAADSGYEYDYWGQGTQVTVSS | low polyreactivity
QVQLVESGGVLVQAGGSLRLSCAASGSTFYFNTMGWYRQAPGKERELVAAITATGASTYYADSVKGRFTISRDIAKNTVYLQMNSLKPEDTAVYYCNVRLRIRSGYWGQGTQVTVSS | high polyreactivity
QVQLVESGGGLVQAGGSLRLSCAASGLTLPSYVMGCYRQAPGKERELVAAISNSGGSTYYADSVKGRFTISRDTAKNTVYLQMNSLKPEDTAVYYCAAVYGYLLYFLLLPFTRDDYWGQGTQVTVSS | high polyreactivity
QVQLVESGGGLVQAGGSLRLSCAASGSTFSVNAMGWYRQAPGKEREMVAAISSTGSTKYADSVKGRFTISRDNAKNTVYLQMNSLKPEDTAVYCAASNADYEYDPFSVWYFSPYDYWGQGTQVTVSS | low polyreactivity
QVQLVESGGGLVQAGGSLRLSCAASGRIFFTYTMGWYRQAPVNERELVAAITGGGARTYYADSVKVRFTISRDYAKNTVYLQMNSLKPEDSAVYYCAKGWQRIGFYYWGQGTQVTVSS | high polyreactivity
QVQLVESGGGLVQAGGSLRLSCAASGRIFGVYAMGWYRQAPGKERELVAAISFSGGRTYYADSVKGRFTISRDNAKNTVYLQMNSLKPEDTAVYYCSALGPYDWLWAGDYWGQGTQVTVSS | low polyreactivity
QVQLVESGGGLVQAGGSLRLSCAASGNTFRIYTMVWYRQAPGKERELVATITRRGGSTYYADSVKGRFTISRDNAMNTVYLQMNSLKPEDTVVYYCAARVRGTGVYGGYNYWGQGTLVTVSS | high polyreactivity
QVQHVESGGGLVQAGGSLRLSCAASGRIFGTYAMGWYRPAPGKERELVAAISWRGGSTYYADSVKGRFTISRDNAKNTVYLQMNSLKPEDTAVYYCAATWWSPSRGTKGDYWGQGTQVTVSS | low polyreactivity
QVQLVESGGGLVQAGGSLRLSCSASGSTLAKYAMGWYRQAPGKERELVAAISWSGGRTYYADSVKGRFTISRDNAKNTVYLPMNSLKPEDTAVYYGAARALSSRTYHDDYWGQGTQVTVSS | high polyreactivity
QVQLVESGGGLVQAGGSLRLSCAASGRTFFRNAMGWYRQAPGKERELVAGMSSSGGRTYADSVKGRYTISRDNAKNTVYLQMNSLKPEDTAVYYCAVQSGWVSGLRYYYWGQGTQVTVSS | high polyreactivity
QVQLVESGGGLVQAGGSLRLSCAASGFIFPVNAMGWYRQAPGKERELVAGISRGGRTNYADSVKGRFTISRDNAKYSVYLQMNSLKPEDTAVYYCAAESYRAYKYDSWGQGTQVTVSS | low polyreactivity
QVQLVESGVGLVQAGGSLRLSCAASGITFIPYAMGWYRQAPGKERELVASISDGGGTNYADSVKGLFTISRDNAKNTVYLQKNSLNPEDTAVYYCATYASTYSYYGGDYWGQGTPVTVSS | low polyreactivity
QVQLVESGGGLVQAGGSLRLSCAASGRTFYYYAMGWYRQAPGKERELVADITYSGGSTYYADSVKGRFTISRDNAKNTVYLQMNSLKPEDTAVYYCAARVTVSHWPYYYDSYDYWGQGTQVTVSS | low polyreactivity
